Laboratory results reported in article PMC7595419.

Target: SicA-His6 (Salmonella enterica serovar Typhimurium) (UniProt P69066)
Test: EMSA

SicA-His6 (Salmonella enterica serovar Typhimurium), sequence (P69066 whole entry): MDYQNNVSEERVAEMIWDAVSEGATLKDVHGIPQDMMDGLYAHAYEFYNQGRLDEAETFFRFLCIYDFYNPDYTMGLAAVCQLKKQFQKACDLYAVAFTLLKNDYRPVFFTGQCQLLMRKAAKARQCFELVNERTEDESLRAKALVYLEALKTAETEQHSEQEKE

With “ATAGGATCCCGTTGTATAAGGTTTTTTGTAGGCTTTTAAAAGCCTCCTGGGTTTTTAGTGAAGCTGAGTGATAGAAGCTCTGTATTTGCATAGCGTTTTTAATATTCCTGAATAGGGGAGTGGGAACATTCAACAGGGTTAACAACCCTTTAAAAGGATGTGACTTTTATGCACCAGGAACTTTAAAAAAATGTCCTTTTTAATGAGGAAACGCTTCTGATCAGGCGGGGAGGCATCCTGACGTCCATACGTAGTGGCGATCATGGGGGAGATCGGTACATCAAATGTCTAGATAT (double strand) [sopB regulatory region (-200 to +79)]” the binding was “no binding”.
